# Laboratory results published in patent US20260194540A1 (ARIZONA BOARD OF REGENTS ON BEHALF OF ARIZONA STATE …, published 2026).
# Biological target: T1, TDP-43 from healthy human brain tissue (human, UniProt Q13148 1-414)
# T1 construct: also called healthy TDP-43; healthy IP TDP-43
# Experiment: phage ELISA on human brain tissue
# T1 sequence (Q13148 whole entry): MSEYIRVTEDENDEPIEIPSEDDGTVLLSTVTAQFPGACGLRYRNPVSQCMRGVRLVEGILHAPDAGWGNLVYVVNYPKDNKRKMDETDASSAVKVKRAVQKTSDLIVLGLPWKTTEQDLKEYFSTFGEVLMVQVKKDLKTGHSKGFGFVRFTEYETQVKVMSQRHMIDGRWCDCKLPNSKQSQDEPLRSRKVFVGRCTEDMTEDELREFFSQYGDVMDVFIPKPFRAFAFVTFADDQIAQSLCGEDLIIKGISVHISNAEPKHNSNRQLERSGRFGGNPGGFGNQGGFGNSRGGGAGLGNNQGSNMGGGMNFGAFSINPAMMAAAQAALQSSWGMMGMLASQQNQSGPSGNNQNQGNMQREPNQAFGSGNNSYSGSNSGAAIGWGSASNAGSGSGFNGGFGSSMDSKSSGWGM
binder,measurement,value
"TDP-43 monomer clone #5 (scFv, Tested as scFv attached to a phage particle, tagged with a signal moiety when used for detection; also called monomer phage #5) scFv: MAEVQLLESGGGLVRPGGSLRLSCAASGFTFSSYAMSWVRQAPGKGLEWVSDIANTGDATGYADSVKGRFTISRDNSKNTLYLQMNSLRAEDTAVYYCAKTGAAFDYWGQGTLVTVSSGGGGSGGGGSGGGGSTDIQMTQSPSSLSASVGDRVTITCRASQSISSYLNWYQQKPGKAPKLLIYAASTLQSGVPSRFSGSGSGTDFTLTISSLQPEDFATYYCQQSSSDPATFGQGTKVEIKRAA",binding result,binds
